Reference: patent US20190060404A1 (published 2019)

How the values were obtained:
FGFR1-Fc = FGFR1-Fc (UniProt P11362); assay: SPR, FGFR1-Fc fixed on the sensor, VEGF-B167 added
human FGFR2-Fc (human) = human FGFR2-Fc (human) (UniProt P21802); assay: SPR, FGFR2-Fc fixed on the sensor, VEGF-B167 added
[1] = target: T1, VEGFR2 of C57B16 mouse retina and brain tissue (mouse, UniProt P35918 20-1345, limits assumed); assay: co-immunoprecipitation with anti-FGFR2 antibody from mouse brain and retinal tissue
T1 construct: Endogenous protein in tissue lysate
Experimental: (§1) Co-immunoprecipitation assay: brain tissues and retinae of the C57B16 mice were separated, and were homogenated after added with RIPA buffer comprising protease and phosphatase inhibitor. Supernatant was obtained by centrifuging. After protein quantification, the supernatant was incubated with anti-FGFR1 antibody at 4° C. overnight. Magnetic beads combined with A/G protein were added to capture the antibody complex. 10% PAGE electrophoresis and transfer to a PVDF film were performed successively for the complex, then the complex was incubated with the primary antibody of VEGFR1, VEGFR2 or FGFR1, and was further incubated with HRP-labeled secondary antibody, ECL luminescence reagent was added to display color in the end.
Co-Immunoprecipitation: brain tissue and retinae were extracted from the C57B16 mice. The C57B16 mice were intravitreally injected with BSA (500 ng/eye), FGF2 (100 ng/eye) or VEGF-B₁₆₇ (500 ng/eye), and their retinae were extracted 1 hour after the injection. The brain tissue and retinae, and the retinae from the injected C57B16 mice were treated by the operational procedure described in Embodiment 5, and incubated with anti-FGFR2 antibody for co-immunoprecipitation (with VEGFR1 or VEGFR2).

[2] = target: T1, VEGFR2 of C57B16 mouse retina and brain …; assay: co-immunoprecipitation with anti-FGFR1 antibody from mouse retina and brain tissue
Experimental: as §1

T1 sequence (P35918 20-1345 limits assumed, one chain of several): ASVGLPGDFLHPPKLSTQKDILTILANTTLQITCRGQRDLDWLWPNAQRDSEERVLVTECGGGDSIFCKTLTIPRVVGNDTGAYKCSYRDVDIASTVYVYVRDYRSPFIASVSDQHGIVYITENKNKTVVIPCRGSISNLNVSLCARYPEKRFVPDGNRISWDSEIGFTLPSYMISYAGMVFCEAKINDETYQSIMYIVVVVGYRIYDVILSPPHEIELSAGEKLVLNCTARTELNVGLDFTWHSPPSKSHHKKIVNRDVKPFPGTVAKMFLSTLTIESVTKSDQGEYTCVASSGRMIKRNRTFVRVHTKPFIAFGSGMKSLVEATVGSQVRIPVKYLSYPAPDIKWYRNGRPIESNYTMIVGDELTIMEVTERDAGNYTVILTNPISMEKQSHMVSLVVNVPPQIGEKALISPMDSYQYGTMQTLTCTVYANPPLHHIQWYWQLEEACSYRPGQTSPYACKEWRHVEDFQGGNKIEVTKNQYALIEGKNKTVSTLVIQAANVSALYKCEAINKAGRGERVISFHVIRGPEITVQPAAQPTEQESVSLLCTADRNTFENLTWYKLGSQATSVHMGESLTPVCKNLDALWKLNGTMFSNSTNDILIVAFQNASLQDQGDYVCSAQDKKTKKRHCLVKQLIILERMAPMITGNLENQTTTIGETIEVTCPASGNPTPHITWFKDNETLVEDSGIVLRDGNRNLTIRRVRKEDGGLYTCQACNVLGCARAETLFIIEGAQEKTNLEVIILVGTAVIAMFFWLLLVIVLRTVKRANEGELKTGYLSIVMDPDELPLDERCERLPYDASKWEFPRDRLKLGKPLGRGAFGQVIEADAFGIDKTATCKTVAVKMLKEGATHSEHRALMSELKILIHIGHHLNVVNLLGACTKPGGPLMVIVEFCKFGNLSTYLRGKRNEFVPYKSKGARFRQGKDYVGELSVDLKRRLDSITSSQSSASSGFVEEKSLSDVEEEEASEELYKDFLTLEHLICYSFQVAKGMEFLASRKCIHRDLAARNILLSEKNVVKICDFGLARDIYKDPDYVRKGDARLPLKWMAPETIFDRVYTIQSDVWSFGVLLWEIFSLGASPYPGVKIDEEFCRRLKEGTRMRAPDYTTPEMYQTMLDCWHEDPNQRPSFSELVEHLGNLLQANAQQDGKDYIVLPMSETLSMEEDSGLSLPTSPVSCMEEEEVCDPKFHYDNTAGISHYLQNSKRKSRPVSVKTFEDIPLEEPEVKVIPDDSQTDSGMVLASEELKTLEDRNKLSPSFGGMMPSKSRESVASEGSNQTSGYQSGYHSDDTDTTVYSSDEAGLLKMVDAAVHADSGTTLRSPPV
Sequence of FGFR1-Fc (P11362 22-376 limits assumed): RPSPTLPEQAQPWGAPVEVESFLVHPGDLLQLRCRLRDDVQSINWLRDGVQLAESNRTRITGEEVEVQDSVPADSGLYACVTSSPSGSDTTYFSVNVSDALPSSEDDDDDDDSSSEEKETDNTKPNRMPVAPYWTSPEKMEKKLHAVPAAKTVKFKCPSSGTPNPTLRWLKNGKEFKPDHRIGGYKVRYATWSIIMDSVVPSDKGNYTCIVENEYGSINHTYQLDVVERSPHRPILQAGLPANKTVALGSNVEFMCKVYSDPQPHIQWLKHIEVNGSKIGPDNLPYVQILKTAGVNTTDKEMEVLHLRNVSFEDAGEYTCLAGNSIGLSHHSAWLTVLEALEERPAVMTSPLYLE

VEGF-B167 (from UniProt P49765 22-207) (ligand)
Kd (FGFR1-Fc): 15 nM
Kd (human FGFR2-Fc (human)): 112 nM

B1: FGFR2 of C57B16 mouse tissue and mouse primary SMC (receptor, UniProt P21803 22-821, looked up)
chain: RPSFSLVEDTTLEPEEPPTKYQISQPEAYVVAPGESLELQCMLKDAAVISWTKDGVHLGPNNRTVLIGEYLQIKGATPRDSGLYACTAARTVDSETWIFMVNVTDAISSGDDEDDTDSSEDVVSENRSNQRAPYWTNTEKMEKRLHACPAANTVKFRCPAGGNPTSTMRWLKNGKEFKQEHRIGGYKVRNQHWSLIMESVVPSDKGNYTCLVENEYGSINHTYHLDVVERSPHRPILQAGLPANASTVVGGDVEFVCKVYSDAQPHIQWIKHVEKNGSKNGPDGLPYLKVLKAAGVNTTDKEIEVLYIRNVTFEDAGEYTCLAGNSIGISFHSAWLTVLPAPVREKEITASPDYLEIAIYCIGVFLIACMVVTVIFCRMKTTTKKPDFSSQPAVHKLTKRIPLRRQVTVSAESSSSMNSNTPLVRITTRLSSTADTPMLAGVSEYELPEDPKWEFPRDKLTLGKPLGEGCFGQVVMAEAVGIDKDKPKEAVTVAVKMLKDDATEKDLSDLVSEMEMMKMIGKHKNIINLLGACTQDGPLYVIVEYASKGNLREYLRARRPPGMEYSYDINRVPEEQMTFKDLVSCTYQLARGMEYLASQKCIHRDLAARNVLVTENNVMKIADFGLARDINNIDYYKKTTNGRLPVKWMAPEALFDRVYTHQSDVWSFGVLMWEIFTLGGSPYPGIPVEELFKLLKEGHRMDKPTNCTNELYMMMRDCWHAVPSQRPTFKQLVEDLDRILTLTTNEEYLDLTQPLEQYSPSYPDTSSSCSSGDDSVFSPDPMPYEPCLPQYPHINGSVKT
notes: Endogenous protein in tissue lysate (co-immunoprecipitation) or on cells (proximity ligation assay)
binding result [1]: no binding

B2: FGFR1 of C57B16 mouse retina and brain tissue (receptor, UniProt P16092 22-822, looked up)
chain: RPAPTLPEQAQPWGVPVEVESLLVHPGDLLQLRCRLRDDVQSINWLRDGVQLVESNRTRITGEEVEVRDSIPADSGLYACVTSSPSGSDTTYFSVNVSDALPSSEDDDDDDDSSSEEKETDNTKPNRRPVAPYWTSPEKMEKKLHAVPAAKTVKFKCPSSGTPNPTLRWLKNGKEFKPDHRIGGYKVRYATWSIIMDSVVPSDKGNYTCIVENEYGSINHTYQLDVVERSPHRPILQAGLPANKTVALGSNVEFMCKVYSDPQPHIQWLKHIEVNGSKIGPDNLPYVQILKTAGVNTTDKEMEVLHLRNVSFEDAGEYTCLAGNSIGLSHHSAWLTVLEALEERPAVMTSPLYLEIIIYCTGAFLISCMLGSVIIYKMKSGTKKSDFHSQMAVHKLAKSIPLRRQVTVSADSSASMNSGVLLVRPSRLSSSGTPMLAGVSEYELPEDPRWELPRDRLVLGKPLGEGCFGQVVLAEAIGLDKDKPNRVTKVAVKMLKSDATEKDLSDLISEMEMMKMIGKHKNIINLLGACTQDGPLYVIVEYASKGNLREYLQARRPPGLEYCYNPSHNPEEQLSSKDLVSCAYQVARGMEYLASKKCIHRDLAARNVLVTEDNVMKIADFGLARDIHHIDYYKKTTNGRLPVKWMAPEALFDRIYTHQSDVWSFGVLLWEIFTLGGSPYPGVPVEELFKLLKEGHRMDKPSNCTNELYMMMRDCWHAVPSQRPTFKQLVEDLDRIVALTSNQEYLDLSIPLDQYSPSFPDTRSSTCSSGEDSVFSHEPLPEEPCLPRHPTQLANSGLKRR
notes: Endogenous protein in tissue lysate
binding result [2]: no binding
